Results as given in publication PMC7125077.

Key:
[1] = tested on: ctXPD R324E (Chaetomium thermophilum); assay: fluorescence anisotropy; conditions: 5 mM Mg2+; no MAT1; ctXPD: 20 mM HEPES pH 7.5, 50 mM KCl, 5 mM MgCl2, 1 mM TCEP, 5 nM DNA, room temperature; ctDDX11: 25 mM HEPES pH 7.5, 25 mM KCl, 1 mM MgSO4, 1 mM TCEP, 2 nM …
[2] = tested on: ctXPD R333E/R334E (Chaetomium thermophilum); assay: fluorescence anisotropy; conditions: 5 mM Mg2+; no MAT1; ctXPD: 20 mM HEPES pH 7.5, 50 mM KCl, 5 mM MgCl2, 1 mM TCEP, 5 nM DNA, room temperature; ctDDX11: 25 mM HEPES pH 7.5, 25 mM KCl, 1 mM MgSO4, 1 mM TCEP, 2 nM …
[3] = tested on: ctXPD wild type (Chaetomium thermophilum); assay: fluorescence anisotropy; conditions: 5 mM Mg2+; no MAT1; ctXPD: 20 mM HEPES pH 7.5, 50 mM KCl, 5 mM MgCl2, 1 mM TCEP, 5 nM DNA, room temperature; ctDDX11: 25 mM HEPES pH 7.5, 25 mM KCl, 1 mM MgSO4, 1 mM TCEP, 2 nM …
[4] = tested on: ctXPD R323S/R324S (Chaetomium thermophilum); assay: fluorescence anisotropy; conditions: 5 mM Mg2+, ctXPD: 20 mM HEPES pH 7.5, 50 mM KCl, 5 mM MgCl2, 1 mM TCEP, 5 nM DNA, room temperature, ctDDX11: 25 mM HEPES pH 7.5, 25 mM KCl, 1 mM MgSO4, 1 mM TCEP, 2 nM …
[5] = tested on: ctDDX11 K427E/K428E (Chaetomium thermophilum); assay: fluorescence anisotropy; conditions: 1 mM MgSO4, 25 mM HEPES pH 7.5, 25 mM KCl, 2 nM DNA, ctXPD: 20 mM HEPES pH 7.5, 50 mM KCl, 5 mM MgCl2, 1 mM TCEP, 5 nM DNA, room temperature, ctDDX11: 25 mM HEPES pH 7.5, 25 mM KCl, 1 mM MgSO4, 1 mM TCEP
[6] = tested on: ctDDX11 wild type (Chaetomium thermophilum); assay: fluorescence anisotropy; conditions: 1 mM MgSO4, 25 mM HEPES pH 7.5, 25 mM KCl, 2 nM DNA, ctXPD: 20 mM HEPES pH 7.5, 50 mM KCl, 5 mM MgCl2, 1 mM TCEP, 5 nM DNA, room temperature, ctDDX11: 25 mM HEPES pH 7.5, 25 mM KCl, 1 mM MgSO4, 1 mM TCEP
[7] = tested on: ctXPD R323E (Chaetomium thermophilum); assay: fluorescence anisotropy; conditions: 5 mM Mg2+; no MAT1; ctXPD: 20 mM HEPES pH 7.5, 50 mM KCl, 5 mM MgCl2, 1 mM TCEP, 5 nM DNA, room temperature; ctDDX11: 25 mM HEPES pH 7.5, 25 mM KCl, 1 mM MgSO4, 1 mM TCEP, 2 nM …
[8] = tested on: ctXPD K369E (Chaetomium thermophilum); assay: fluorescence anisotropy; conditions: 5 mM Mg2+; no MAT1; text gives 54 nM; ctXPD: 20 mM HEPES pH 7.5, 50 mM KCl, 5 mM MgCl2, 1 mM TCEP, 5 nM DNA, room temperature; ctDDX11: 25 mM HEPES pH 7.5, 25 mM KCl, 1 mM MgSO4, 1 mM TCEP, 2 nM …
[9] = tested on: ctXPD R333S/R334S (Chaetomium thermophilum); assay: fluorescence anisotropy; conditions: 5 mM Mg2+, ctXPD: 20 mM HEPES pH 7.5, 50 mM KCl, 5 mM MgCl2, 1 mM TCEP, 5 nM DNA, room temperature, ctDDX11: 25 mM HEPES pH 7.5, 25 mM KCl, 1 mM MgSO4, 1 mM TCEP, 2 nM …
[10] = tested on: ctXPD wild type;ctMAT1Lock (Chaetomium thermophilum;Chaetomium thermophilum); assay: fluorescence anisotropy; conditions: 5 mM Mg2+; equimolar ctMAT1Lock; ctXPD: 20 mM HEPES pH 7.5, 50 mM KCl, 5 mM MgCl2, 1 mM TCEP, 5 nM DNA, room temperature; ctDDX11: 25 mM HEPES pH 7.5, 25 mM KCl, 1 mM MgSO4, 1 mM TCEP, 2 nM …
[11] = molecular target: Chaetomium thermophilum XPD, wild type (Chaetomium thermophilum)
[12] = molecular target: Chaetomium thermophilum XPD, wild type (Chaetomium thermophilum); assay: native gel or EMSA; native PAGE of ctXPD with the ctMAT1 fragments ctMAT1Archway and ctMAT1Lock at similar concentrations (Supplementary Fig. 2c); unbound fragment quantified
[13] = molecular target: ctXPD K369A (Chaetomium thermophilum)
[14] = molecular target: T1, human XPD, wild type (XPD-FLAG) (human) (UniProt P18074)
T1 sequence: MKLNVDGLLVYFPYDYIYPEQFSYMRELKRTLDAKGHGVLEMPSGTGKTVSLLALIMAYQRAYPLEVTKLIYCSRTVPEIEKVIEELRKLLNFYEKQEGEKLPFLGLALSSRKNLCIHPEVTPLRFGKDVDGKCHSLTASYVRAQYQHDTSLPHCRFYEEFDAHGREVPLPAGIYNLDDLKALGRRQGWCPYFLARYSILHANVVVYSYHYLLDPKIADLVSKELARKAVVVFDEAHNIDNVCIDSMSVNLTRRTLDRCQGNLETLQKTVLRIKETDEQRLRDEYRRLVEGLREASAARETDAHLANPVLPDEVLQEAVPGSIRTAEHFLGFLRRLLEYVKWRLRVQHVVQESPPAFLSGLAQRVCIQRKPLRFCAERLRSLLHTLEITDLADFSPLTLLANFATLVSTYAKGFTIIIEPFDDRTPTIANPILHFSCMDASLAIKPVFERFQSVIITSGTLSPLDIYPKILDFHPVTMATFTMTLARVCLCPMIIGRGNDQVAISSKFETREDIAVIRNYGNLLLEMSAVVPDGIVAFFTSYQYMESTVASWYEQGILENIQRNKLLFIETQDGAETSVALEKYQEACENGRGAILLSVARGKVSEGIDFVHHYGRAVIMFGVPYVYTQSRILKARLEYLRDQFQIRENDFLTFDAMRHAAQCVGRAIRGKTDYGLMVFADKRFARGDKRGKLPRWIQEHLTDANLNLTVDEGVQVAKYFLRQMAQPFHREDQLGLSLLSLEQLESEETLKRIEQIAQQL

[15] = equimolar ctMAT1Lock present (not bound by variant)

Q: “AGCTACCATGCCTGCACGAATTAAGCAATTCGTAATCATGGTCATAGC / GCTATGACCATGATTACGAATTGCTTGGAATCCTGACGAACTGTAG [splayed duplex DNA]” was tested. Which Kd [1] did it give?
A: 72 nM

Q: What about the Kd [2] of the same substance?
A: 108 nM

Q: What about the Kd [3] of the same substance?
A: 66 nM

Q: And the Kd [4, 15]?
A: 31 nM

Q: What about the Kd ([4]; no MAT1) of the same substance?
A: 51 nM

Q: And the Kd [5]?
A: 50.8 nM

Q: And the Kd [6]?
A: 30.8 nM

Q: And the Kd [7]?
A: 41 nM

Q: What about the Kd [8] of the same substance?
A: 55 nM

Q: What about the Kd [9, 15] of the same substance?
A: 128 nM

Q: What about the Kd ([9]; no MAT1) of the same substance?
A: 154 nM

Q: What about the Kd [10] of the same substance?
A: 379 nM

Q: For “ctMAT1Archway (residues 83-157 of Chaetomium thermophilum MAT1) (domain or fragment)”, which inhibition of ctXPD helicase activity (with ctp44, 5' overhang substrate) by titration of the ctMAT1 construct, IC50 [11] is on record?
A: 2990 nM

Q: What about the percent unbound ctMAT1 fragment [12] of the same substance?
A: 84%

Q: How did the inhibition of helicase activity of the ctXPD variant by ctMAT1Lock, IC50 [13] turn out when “ctMAT1Lock (residues 1-157 of Chaetomium thermophilum MAT1) (domain or fragment)” was run?
A: 263 nM

Q: What about the inhibition of ctXPD helicase activity (with ctp44, 5' overhang substrate) by titration of the ctMAT1 construct, IC50 [11] of the same substance?
A: 220 nM

Q: And the percent unbound ctMAT1 fragment [12]?
A: 12.8%

Q: How did the in vitro run-off transcription with core-TFIIH lacking XPD (rIIH6), XPD and the CAK variant, residual activity against wild-type CAK [14] turn out when “human CAK with MAT1 D97S/E100S (from UniProt P51948 1-309; P50613 1-346; P51946 1-323) (complex)” was run?
A: 55%
